According to publication PMC5165203, “The Cellular DNA Helicase ChlR1 Regulates Chromatin and Nuclear Matrix Attachment of the Human Papillomavirus 16 E2 Protein and High-Copy-Number Viral Genome Establishment” (Journal of Virology, 2016):
Substitutions are numbered along the chain they refer to. Names may count otherwise.

B1: HPV16 E2 D124A mutant (natural protein)
chain: METLCQRLNVCQDKILTHYENDSTDLRDHIDYWKHMRLECAIYYKAREMGFKHINHQVVPTLAVSKNKALQAIELQLTLETIYNSQYSNEKWTLQDVSLEVYLTAPTGCIKKHGYTVEVQFDGAICNTMHYTNWTHIYICEEASVTVVEGQVDYYGLYYVHEGIRTYFVQFKDDAEKYSKNKVWEVHAGGQVILCPTSVFSSNEVSSPEIIRQHLANHPAATHTKAVALGTEETQTTIQRPRSEPDTGNPCHTTKLLHRDSVDSAPILTAFNSSHKGRINCNSNTTPIVHLKGDANTLKCLRYRFKKHCTLYTAVSSTWHWTGHNVKHKSAIVTLTYDSEWQRDQFLSQVKIPKTITVSTGFMSI
notes: E2 protein of human papillomavirus 16, from pCMV-16E2 by site-directed mutagenesis; source: C33a cells, transfected (mutated pCMV-16E2), in lysate
B2: HPV16 E2 D173A mutant (natural protein)
chain: B1 chain with A124D, D173A
notes: as for B1
B3: HPV16 E2 E118A mutant (natural protein)
chain: B1 chain with E118A, A124D
notes: as for B1
B4: HPV16 E2 H130R mutant (natural protein)
chain: B1 chain with A124D, H130R
notes: as for B1
B5: HPV16 E2 K177A mutant (natural protein)
chain: B1 chain with A124D, K177A
notes: as for B1
B6: HPV16 E2 Y131A mutant (natural protein)
chain: B1 chain with A124D, Y131A
notes: as for B1

Biological target: T1, His-ChlR1 63-214 (human, UniProt Q96FC9 63-214)
T1 construct: DNA helicase ChlR1, human, amino acids 63 to 214, cloned from pCMV-FLAG-ChlR1 into pHIS-TEV; Vector pHIS-TEV (NcoI/EcoRI); held on nickel resin by the hexahistidine tag in the pull-down; also called ChlR1 63-214 peptide
T1 sequence (looked up): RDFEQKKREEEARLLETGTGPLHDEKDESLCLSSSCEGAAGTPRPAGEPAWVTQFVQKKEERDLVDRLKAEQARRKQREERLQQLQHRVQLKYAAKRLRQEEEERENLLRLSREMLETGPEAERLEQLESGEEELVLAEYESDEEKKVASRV
Assay: pull-down; His-ChlR1 1-130 or His-ChlR1 63-214 immobilised on nickel resin, incubated with cleared whole-cell lysate of E2-transfected C33a cells for 16 h at 4°C; bound E2 by Western blotting, densitometry against input
Conditions: one partner purified

Binder	% E2 bound (in comparison to the E2^WT binding level) [%]
B1	38.8
B2	80.5
B3	107
B4	45.2
B5	36.3
B6	5.43
